Data on 125 sequences can be found in the supplement of paper PMC9112550, “Optimization of the antimicrobial peptide Bac7 by deep mutational scanning” (BMC Biology, 2022).

The subject of the data set is Escherichia coli TOP10. As to the kind of experiment: shrunken log2 fold change of peptide-encoding DNA abundance (4.5 h post-induction vs induction); higher = less antimicrobial activity (less host growth inhibition). Conditions: time post-induction: 4.5 h; library: site-saturation at positions 5, 18, 19, 20.
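Further: peptides expressed intracellularly from a pBAD plasmid library in pooled LB shake-flask culture, induced with 0.3% L-arabinose, DNA abundance read by NGS, three biological replicates, DESeq2 with apeglm shrinkage.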

With RRIRARPPRLPRPRPRPMTWPRP, the “shrunken log2 fold change” value turned out to be 0.307.
In the case of RRIRRRPPRLPRPRPRPPAHPRP, the “shrunken log2 fold change” value was found to be 0.728.
With RRIRKRPPRLPRPRPRPLFLPRP, the “shrunken log2 fold change” value amounted to 0.115.
For the sequence RRIRIRPPRLPRPRPRPSRHPRP, the “shrunken log2 fold change” value was -0.384.
Turning to RRIRNRPPRLPRPRPRPFYDPRP, the “shrunken log2 fold change” value was determined as 0.18.
Consider RRIRCRPPRLPRPRPRPPHSPRP, for which the “shrunken log2 fold change” value was found to be 0.395.
Regarding RRIRERPPRLPRPRPRPHGIPRP, the “shrunken log2 fold change” value was -0.00973.
Take RRIRYRPPRLPRPRPRPCVLPRP: the “shrunken log2 fold change” value is -0.00875.
With RRIRIRPPRLPRPRPRPHTPPRP the figure was -0.721; with RRIRDRPPRLPRPRPRPHNVPRP, 0.00884; with RRIRWRPPRLPRPRPRPADEPRP, 0.033.
Then RRIRERPPRLPRPRPRPILWPRP, with -0.161.
Then RRIRGRPPRLPRPRPRPCFHPRP, with -0.011; and RRIRRRPPRLPRPRPRPHESPRP, with 0.0784; and RRIRMRPPRLPRPRPRPVPPPRP, with 0.901.
RRIRMRPPRLPRPRPRPVFWPRP: the “shrunken log2 fold change” value came to 0.884.
With RRIRVRPPRLPRPRPRPWSPPRP the figure was -0.00502; with RRIRKRPPRLPRPRPRPKFFPRP, 0.219; with RRIRVRPPRLPRPRPRPQNIPRP, -0.504.
RRIRVRPPRLPRPRPRPNLEPRP: the “shrunken log2 fold change” value is 0.0543.
In the case of RRIRSRPPRLPRPRPRPFLQPRP, the “shrunken log2 fold change” value is -0.267.
In the case of RRIRPRPPRLPRPRPRPSWCPRP, the “shrunken log2 fold change” value was 0.108.
Regarding RRIRQRPPRLPRPRPRPPRPPRP, the “shrunken log2 fold change” value worked out at 0.752.
With RRIRRRPPRLPRPRPRPVHAPRP, the “shrunken log2 fold change” value was 0.67.
Then RRIRQRPPRLPRPRPRPASGPRP, with -0.00438.
With RRIRWRPPRLPRPRPRPPFQPRP the figure was 0.248; with RRIRMRPPRLPRPRPRPGEPPRP, 0.163; with RRIRARPPRLPRPRPRPTCIPRP, 0.331.
With RRIRRRPPRLPRPRPRPFMSPRP the figure was -0.327; with RRIRNRPPRLPRPRPRPIGAPRP, 0.235; with RRIRRRPPRLPRPRPRPIEAPRP, -0.137.
With RRIRVRPPRLPRPRPRPKGVPRP, the “shrunken log2 fold change” value stood at 0.472.
Then RRIRIRPPRLPRPRPRPYAHPRP, with -0.184.
With RRIRCRPPRLPRPRPRPAKQPRP the figure was -0.0271.
With RRIRWRPPRLPRPRPRPWKNPRP the figure was 0.0346.
Consider RRIRMRPPRLPRPRPRPFNPPRP, for which the “shrunken log2 fold change” value is -1.51.
Then RRIRIRPPRLPRPRPRPMFDPRP, with -0.0483; and RRIRTRPPRLPRPRPRPSMGPRP, with -0.22; and RRIRNRPPRLPRPRPRPIHIPRP, with -0.58.
With RRIRQRPPRLPRPRPRPLCLPRP, the “shrunken log2 fold change” value is -0.253.
Turning to RRIRKRPPRLPRPRPRPQHIPRP, the “shrunken log2 fold change” value was -0.243.
Regarding RRIRVRPPRLPRPRPRPMKEPRP, the “shrunken log2 fold change” value was -0.04.
Regarding RRIRVRPPRLPRPRPRPHHKPRP, the “shrunken log2 fold change” value is -0.477.
With RRIRIRPPRLPRPRPRPRMAPRP the figure was 0.0331.
As for RRIRRRPPRLPRPRPRPQKHPRP, the “shrunken log2 fold change” value turned out to be 0.0365.
Turning to RRIRTRPPRLPRPRPRPIWTPRP, the “shrunken log2 fold change” value amounted to 0.00694.
Then RRIRGRPPRLPRPRPRPNLVPRP, with 0.0862; and RRIRFRPPRLPRPRPRPNCMPRP, with -0.143.
Then RRIRLRPPRLPRPRPRPASCPRP, with 0.117.
Consider RRIRLRPPRLPRPRPRPTNDPRP, for which the “shrunken log2 fold change” value was -0.288.
Then RRIRSRPPRLPRPRPRPVKEPRP, with 0.0656; and RRIRTRPPRLPRPRPRPCHPPRP, with -0.0634; and RRIRCRPPRLPRPRPRPHAIPRP, with -0.139.
On to RRIRERPPRLPRPRPRPNQHPRP, for which the “shrunken log2 fold change” value was -0.228.
On to RRIRDRPPRLPRPRPRPEVDPRP, for which the “shrunken log2 fold change” value stood at 0.00961.
Turning to RRIRGRPPRLPRPRPRPIQDPRP, the “shrunken log2 fold change” value was determined as 0.391.
Then RRIRCRPPRLPRPRPRPCPFPRP, with -0.332.
Then RRIRLRPPRLPRPRPRPMMHPRP, with 0.0259; and RRIRARPPRLPRPRPRPNYGPRP, with -0.24; and RRIRCRPPRLPRPRPRPQSQPRP, with 0.131.
In the case of RRIRPRPPRLPRPRPRPMMTPRP, the “shrunken log2 fold change” value was -0.146.
With RRIRARPPRLPRPRPRPVMEPRP the figure was 1.04.
Then RRIRIRPPRLPRPRPRPPTAPRP, with 0.335; and RRIRPRPPRLPRPRPRPMNPPRP, with 0.00824; and RRIRSRPPRLPRPRPRPRYPPRP, with -0.036.
RRIRWRPPRLPRPRPRPGVWPRP: the “shrunken log2 fold change” value is 0.519.
Then RRIRLRPPRLPRPRPRPQWPPRP, with 0.28; and RRIRTRPPRLPRPRPRPSESPRP, with 0.122.
Consider RRIRNRPPRLPRPRPRPQICPRP, for which the “shrunken log2 fold change” value is -0.0199.
For RRIRDRPPRLPRPRPRPGHWPRP, the “shrunken log2 fold change” value came to 0.315.
On to RRIRIRPPRLPRPRPRPTRPPRP, for which the “shrunken log2 fold change” value was determined as 0.763.
Take RRIRWRPPRLPRPRPRPPKDPRP: the “shrunken log2 fold change” value was determined as 0.0853.
RRIRFRPPRLPRPRPRPFVFPRP: the “shrunken log2 fold change” value was -0.454.
With RRIRLRPPRLPRPRPRPTEVPRP the figure was -0.126; with RRIRYRPPRLPRPRPRPPHVPRP, -0.142; with RRIRRRPPRLPRPRPRPPLSPRP, 0.996.
Regarding RRIRWRPPRLPRPRPRPIEHPRP, the “shrunken log2 fold change” value was -0.133.
Take RRIRFRPPRLPRPRPRPVIRPRP: the “shrunken log2 fold change” value is -0.68.
For the sequence RRIRTRPPRLPRPRPRPYSPPRP, the “shrunken log2 fold change” value was -0.226.
For RRIRCRPPRLPRPRPRPHWFPRP, the “shrunken log2 fold change” value was -0.0681.
RRIRNRPPRLPRPRPRPVWLPRP: the “shrunken log2 fold change” value was found to be 0.0895.
For RRIRMRPPRLPRPRPRPWSIPRP, the “shrunken log2 fold change” value is -0.0237.
Then RRIRLRPPRLPRPRPRPFSHPRP, with -0.262; and RRIRTRPPRLPRPRPRPSGLPRP, with -0.573.
For RRIRGRPPRLPRPRPRPPIKPRP, the “shrunken log2 fold change” value was determined as 0.403.
Then RRIRIRPPRLPRPRPRPSMEPRP, with -0.343.
Turning to RRIRFRPPRLPRPRPRPLTAPRP, the “shrunken log2 fold change” value is -0.0807.
On to RRIRERPPRLPRPRPRPMKPPRP, for which the “shrunken log2 fold change” value was -0.0018.
On to RRIRARPPRLPRPRPRPIGIPRP, for which the “shrunken log2 fold change” value worked out at 0.0254.
In the case of RRIRMRPPRLPRPRPRPHPLPRP, the “shrunken log2 fold change” value was determined as 0.37.
As for RRIRWRPPRLPRPRPRPLAPPRP, the “shrunken log2 fold change” value is 0.664.
With RRIRGRPPRLPRPRPRPEHIPRP, the “shrunken log2 fold change” value worked out at 0.19.
With RRIRHRPPRLPRPRPRPPDDPRP the figure was 0.256; with RRIRMRPPRLPRPRPRPWMRPRP, 0.7.
Then RRIRFRPPRLPRPRPRPIHDPRP, with -0.211; and RRIRFRPPRLPRPRPRPWPCPRP, with -0.229.
Regarding RRIRARPPRLPRPRPRPTFEPRP, the “shrunken log2 fold change” value came out at 0.42.
As to RRIRSRPPRLPRPRPRPWRFPRP, the “shrunken log2 fold change” value turned out to be 0.566.
On to RRIRHRPPRLPRPRPRPDGTPRP, for which the “shrunken log2 fold change” value is -0.0362.
With RRIRFRPPRLPRPRPRPSCEPRP, the “shrunken log2 fold change” value was -0.619.
For RRIRNRPPRLPRPRPRPSVRPRP, the “shrunken log2 fold change” value was -0.00578.
Turning to RRIRLRPPRLPRPRPRPKRNPRP, the “shrunken log2 fold change” value amounted to 0.225.
RRIRNRPPRLPRPRPRPDTAPRP: the “shrunken log2 fold change” value is -0.235.
With RRIRERPPRLPRPRPRPITDPRP the figure was -0.00102; with RRIRWRPPRLPRPRPRPLRLPRP, 0.804.
For RRIRIRPPRLPRPRPRPTSTPRP, the “shrunken log2 fold change” value was -0.0986.
Turning to RRIRSRPPRLPRPRPRPEYHPRP, the “shrunken log2 fold change” value was -0.282.
Then RRIRLRPPRLPRPRPRPCCRPRP, with 0.0477; and RRIRSRPPRLPRPRPRPIFGPRP, with 0.0746; and RRIRVRPPRLPRPRPRPHTSPRP, with -0.643.
In the case of RRIRSRPPRLPRPRPRPVEHPRP, the “shrunken log2 fold change” value was -0.16.
With RRIRNRPPRLPRPRPRPHEYPRP the figure was -0.048; with RRIRERPPRLPRPRPRPSRWPRP, 1.41.
With RRIRKRPPRLPRPRPRPIVPPRP the figure was 0.269.
Then RRIRLRPPRLPRPRPRPTINPRP, with -0.524; and RRIRERPPRLPRPRPRPNPQPRP, with 0.0138; and RRIRARPPRLPRPRPRPHNTPRP, with -0.235.
On to RRIRNRPPRLPRPRPRPTQCPRP, for which the “shrunken log2 fold change” value is -0.093.
With RRIRNRPPRLPRPRPRPDVAPRP the figure was 0.285; with RRIRSRPPRLPRPRPRPVEKPRP, -0.0804.
RRIRCRPPRLPRPRPRPSQIPRP: the “shrunken log2 fold change” value is -0.698.
With RRIRWRPPRLPRPRPRPEIHPRP the figure was -0.0167; with RRIRDRPPRLPRPRPRPFLYPRP, 1.81; with RRIRSRPPRLPRPRPRPQSHPRP, -0.216.
As for RRIRCRPPRLPRPRPRPGSPPRP, the “shrunken log2 fold change” value came to 0.169.
